Assay [1] deals with ATG16L1β (full-length human ATG16L1, β isoform) (human, UniProt Q676U5 1-607). Put plainly: tandem affinity co-purification.
The target of assay [2] is GST-ATG12-5–16L1β complex (human, UniProt O94817 1-140; Q9H1Y0 1-275; Q676U5 1-607). Put plainly: pull-down.
Chain of GST-ATG12-5–16L1β complex (Q676U5 whole entry, one chain of several): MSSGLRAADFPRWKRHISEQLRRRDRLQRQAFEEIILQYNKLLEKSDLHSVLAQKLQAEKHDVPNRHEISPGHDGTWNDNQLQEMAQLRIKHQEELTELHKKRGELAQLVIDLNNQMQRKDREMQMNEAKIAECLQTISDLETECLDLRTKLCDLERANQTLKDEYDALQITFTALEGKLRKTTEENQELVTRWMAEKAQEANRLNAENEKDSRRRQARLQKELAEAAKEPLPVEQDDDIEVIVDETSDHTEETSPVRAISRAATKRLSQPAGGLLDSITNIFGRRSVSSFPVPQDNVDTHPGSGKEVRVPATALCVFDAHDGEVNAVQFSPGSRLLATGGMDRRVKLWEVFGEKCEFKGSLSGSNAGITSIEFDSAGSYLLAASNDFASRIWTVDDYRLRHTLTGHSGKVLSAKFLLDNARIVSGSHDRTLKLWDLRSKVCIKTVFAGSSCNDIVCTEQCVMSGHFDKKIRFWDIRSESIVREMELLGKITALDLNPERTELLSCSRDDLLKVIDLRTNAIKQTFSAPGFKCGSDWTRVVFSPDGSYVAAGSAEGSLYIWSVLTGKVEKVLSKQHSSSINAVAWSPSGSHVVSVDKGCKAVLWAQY

Chain of ATG16L1β (full-length human ATG16L1, β isoform) (Q676U5 whole entry, canonical isoform): as the sequence (Q676U5 whole entry, one chain of several) above

B1: ATG12–ATG5 conjugate (GST-ATG12 with untagged ATG5) (complex, human)
chain 1: MAEEPQSVLQLPTSIAAGGEGLTDVSPETTTPEPPSSAAVSPGTEEPAGDTKKKIDILLKAVGDTPIMKTKKWAVERTRTIQGLIDFIKKFLKLVASEQLFIYVNQSFAPSPDQEVGTLYECFGSDGKLVLHYCKSQAWG
chain 2: MTDDKDVLRDVWFGRIPTCFTLYQDEITEREAEPYYLLLPRVSYLTLVTDKVKKHFQKVMRQEDISEIWFEYEGTPLKWHYPIGLLFDLLASSSALPWNITVHFKSFPEKDLLHCPSKDAIEAHFMSCMKEADALKHKSQVINEMQKKDHKQLWMGLQNDRFDQFWAINRKLMEYPAEENGFRYIPFRIYQTTTERPFIQKLFRPVAADGQLHTLGDLLKEVCPSAIDPEDGEKKNQVMIHGIEPMLETPLQWLSEHLSYPDNFLHISIIPQPTD
In the case of B1, the binding result in assay [1] is “binds”.

B2: ATG3 WT (enzyme)
chain: not shown
Take B2: in assay [2], the binding result is “binds”.
